Patent US11441147B2 (priority 2013, dated 2022)
Like-named read-outs stand apart in the source and are kept apart here.

Assays:
[1] = tested on: Fusarium graminearum (Fg) macroconidia; type: cell-based; settings: for Morphology of Fg macroconidia (microscopic analysis): 1.5 μg dsRNA per 100 macroconidia in 100 μl SNA medium
CYP51A = type: cell-based, Fusarium graminearum; settings: 72 hpt; normalized to beta-tubulin
CYP51B = type: cell-based, Fusarium graminearum; settings: 72 hpt; normalized to beta-tubulin
CYP51C = type: cell-based, Fusarium graminearum; settings: 72 hpt; normalized to beta-tubulin
[2] = tested on: Fusarium graminearum (Fg) macroconidia; type: cell-based; settings: 0 hpt and 72 hpt; dose dependent, 75 μg to 1 μg dsRNA
GFP-expressing Fg strain = type: in vivo, Fusarium graminearum on Arabidopsis thaliana Col-0; settings: 3 dpi; CYP3RNA-expressing leaves
Fg CYP51A = type: in vivo, Fusarium graminearum; settings: 3 dpi; average of lines L1, L8, L10, L11 vs ev control line
Fg CYP51B = type: in vivo, Fusarium graminearum; settings: 3 dpi; average of lines L1, L8, L10, L11 vs ev control line
Fg CYP51C = type: in vivo, Fusarium graminearum; settings: 3 dpi; average of lines L1, L8, L10, L11 vs ev control line
[3] = tested on: siRNAs corresponding to the targeted CYP51 sequences; assay: Northern analysis of siRNAs in Arabidopsis leaves with CYP3RNA as probe; set-up: species or system Arabidopsis thaliana; settings: Fg-infested and uninfested leaves from CYP3RNA-expressing plants
Experimental: For detecting siRNA, total RNA was extracted from the Arabidopsis lines using TRIzol reagent (Invitrogen) following the manufacturer's protocol. A total of 15 μg total RNA was separated in a 16% polyacrylamide-7 M urea gel, and transferred onto Hybond Nylon membrane (Amersham, UK) using a semidry blotter (BioRad) at constant current (250 mA) for 3 h. The RNA was UV-cross-linked to the membrane at 1200×100 μjoules (UV Stratalinker) energy. The membrane was pre-hybridized for 45 min at 42° C. in 20 ml PerfectHyb-Puffer (Sigma). The complete 791 bp CYP3RNA PCR amplicon was used as a template for random labeling (Random Primer DNA Labeling with Kit, NEB), added to the hybridization buffer, and hybridized overnight at 42° C. The membrane was washed twice at room temperature with 5×SSC+0.01% SDS. The membrane was exposed on phosphorimaging screens (Bio-Rad) and signals were detected using a molecular imager and the Quantity One software (BioRad). A parallel loading of low range RNA marker (Fermentas) was used as size marker.
It was further assessed whether this reduction in Fg CYP51 transcripts was associated with the production of corresponding siRNAs. In Northern analyses using CYP3RNA as the probe, siRNAs corresponding to the targeted CYP51 sequences in both Fg-infested and uninfested leaves from CYP3RNA-expressing plants were detected (FIG. 8). […]

[4] = tested on: Fusarium graminearum (Fg); type: in vivo, Fusarium graminearum on barley cultivar Golden Promise; settings: 6 days after inoculation
[5] = tested on: Fusarium graminearum (Fg); type: in vivo, Fusarium graminearum on barley; settings: upper part sprayed, lower part inoculated after 2 days; 6 days after inoculation
[6] = tested on: Fusarium graminearum (Fg); settings: 3 dpi

CC(C)(C)C(O)(CCc1ccc(Cl)cc1)Cn1cncn1 (stereo not drawn) [tebuconazole, reference compound]
Phenotype of Fg macroconidia ([1]; tebuconazole 5 mg/l, 72 h post treatment): phenotype comparable to that elicited by CYP3RNA treatment

B1: CYP3RNA: 791 bp dsRNA complementary to all three Fg CYP51 genes, from stacked clone CYP51B-CYP51A-CYP51C; SEQ ID NO:7 (nucleic acid)
DNA: CAGCAAGTTTGACGAGTCCCTGGCCGCTCTCTACCACGACCTCGATATGGGCTTCACCCCCATCAACTTCATGCTTCACTGGGCCCCTCTCCCCTGGAACCGTAAGCGCGACCACGCCCAGCGCACTGTTGCCAAGATCTACATGGACACTATCAAGGAGCGCCGCGCCAAGGGCAACAACGAATCCGAGCATGACATGATGAAGCACCTTATGAACTCTCCATGGCGGCCGCGGGAATTCGATATCGGTCCATTGACAATCCCCGTCTTTGGTAGCGATGTCGTATACGATTGTCCCAACTCGAAGCTCATGGAACAAAAGAAGTTTGTCAAGTTTGGCCTTACGCAAAAAGCACTCGAGTCACACGTCCAGTTAATCGAGCGAGAGGTTCTTGACTACGTCGAAACTGATCCATCCTTTTCTGGCAGAACTAGCACCATCGATGTCCCCAAGGCAATGGCTGAGATAACAATCTTTACTGCCTCACGTTCTTTGCAGGGTGAGGAAGTTCGGAGAAAACTCACTGCCGAGTTTGCTGCCACTAGTATTGGAAGCACCGTACAATATGGCATCGACCCGTACGCTTTTTTCTTCGACTGCAGAGATAAATACGGCGACTGCTTTACCTTTATTCTCCTTGGCAAATCAACGACTGTCTTTCTTGGTCCCAAGGGCAATGACTTTATCCTCAACGGCAAACACGCCGATCTCAACGCCGAGGACGTTTATGGGAAACTTACCACGCCCGTGTTTGGTGAGGAGGTTGTTTATGACTGCTCCAATG
modifications: combines partial sequences of Fusarium graminearum CYP51B-CYP51A-CYP51C
Morphology of Fg macroconidia (microscopic analysis) ([1]; 48 h post treatment): swelling of hyphal tips | Morphology of Fg macroconidia (microscopic analysis) ([1]; 72 h post treatment): morphological changes had become more pronounced | CYP51A transcript level vs mock control (CYP51A): significantly reduced | CYP51B transcript level vs mock control (CYP51B): significantly reduced | CYP51C transcript level vs mock control (CYP51C): significantly reduced | Fungal growth (optical densities of Fg cultures at 600 nm) [2]: strongly inhibited | Fungal growth on intact leaves (GFP fluorescence) (GFP-expressing Fg strain): restricted to the inoculation site | Reduction of relative transcript level of Fg CYP51A (Fg CYP51A): 92% | Reduction of relative transcript level of Fg CYP51B (Fg CYP51B): 89% | Reduction of relative transcript level of Fg CYP51C (Fg CYP51C): 77% | siRNAs corresponding to the targeted CYP51 sequences [3]: detected | Relative amount of fungal DNA (qPCR, normalized to plant ubiquitin DNA) ([4]; vs infected control leaves): significantly lower | Fungal growth on sprayed leaves (infection symptoms) ([4]; dsRNA 20 ng/μl sprayed 48 h before inoculation, vs buffer or GFP-dsRNA): significant inhibition of fungal growth | Fungal growth at sprayed upper and unsprayed lower leaf area (relative amount of fungal DNA) [5]: observed not only at the CYP3RNA-treated upper leaf area but also at the lower leaf area | Reduction of fungal mycelium formation on leaves (trypan blue microscopy) ([6]; CYP3RNA-expressing leaves vs Col-0 ev control): ~100% | Disease symptoms on detached leaves ([6]; T2 lines L1, L8, L10, L11, 5×10^4 Fg macroconidia per ml): no disease symptoms | Percentage of infested leaf area ([6]; four transgenic lines, ev controls 77%): 0.9%
